# In paper PMC4961739, “Regulation of post-Golgi LH3 trafficking is essential for collagen homeostasis” (Nature Communications, 2016):
# T1: His6-cMyc4-tagged VPS33B (human, UniProt Q9H267 1-617)
# T1 construct: VPS33B, human, UniProt Q9H267; construct pUPE.02.13-VPS33B; also called pUPE.02.13-VPS33B; recombinant tagged VPS33B; source: HEK293 cells stably expressing Epstein-Barr virus Nuclear Antigen I, co-transfected with VIPAR; in lysate, then co-purified with VIPAR (Streptactin Sepharose, Superdex 200); not shown: His6-cMyc4, N-terminal, kept
# T1 sequence (looked up): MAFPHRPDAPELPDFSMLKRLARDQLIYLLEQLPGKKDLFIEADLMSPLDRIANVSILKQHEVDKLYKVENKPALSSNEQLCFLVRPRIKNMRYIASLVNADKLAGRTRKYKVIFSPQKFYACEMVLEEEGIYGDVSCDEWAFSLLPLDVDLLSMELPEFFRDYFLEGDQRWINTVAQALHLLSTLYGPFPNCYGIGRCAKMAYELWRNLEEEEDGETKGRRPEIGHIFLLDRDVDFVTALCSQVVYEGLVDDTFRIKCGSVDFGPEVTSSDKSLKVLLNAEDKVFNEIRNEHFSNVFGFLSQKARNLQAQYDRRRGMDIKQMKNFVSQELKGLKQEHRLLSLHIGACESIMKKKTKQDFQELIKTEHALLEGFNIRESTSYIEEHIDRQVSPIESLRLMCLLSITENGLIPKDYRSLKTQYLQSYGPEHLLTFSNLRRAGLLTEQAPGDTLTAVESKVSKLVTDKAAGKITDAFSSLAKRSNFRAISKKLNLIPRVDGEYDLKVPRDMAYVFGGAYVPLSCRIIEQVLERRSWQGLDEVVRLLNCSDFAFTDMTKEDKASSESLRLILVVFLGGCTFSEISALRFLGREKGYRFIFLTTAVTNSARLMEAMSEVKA
# B1: His6-StrepII3-tagged VIPAR (natural protein, human, UniProt Q9H9C1 1-493, looked up)
# chain: MNRTKGDEEEYWNSSKFKAFTFDDEDDELSQLKESKRAVNSLRDFVDDDDDDDLERVSWSGEPVGSISWSIRETAGNSGSTHEGREQLKSRNSFSSYAQLPKPTSTYSLSSFFRGRTRPGSFQSLSDALSDTPAKSYAPELGRPKGEYRDYSNDWSPSDTVRRLRKGKVCSLERFRSLQDKLQLLEEAVSMHDGNVITAVLIFLKRTLSKEILFRELEVRQVALRHLIHFLKEIGDQKLLLDLFRFLDRTEELALSHYREHLNIQDPDKRKEFLKTCVGLPFSAEDSAHIQDHYTLLERQIIIEANDRHLESAGQTEIFRKHPRKASILNMPLVTTLFYSCFYHYTEAEGTFSSPVNLKKTFKIPDKQYVLTALAARAKLRAWNDVDALFTTKNWLGYTKKRAPIGFHRVVEILHKNNAPVQILQEYVNLVEDVDTKLNLATKFKCHDVVIDTYRDLKDRQQLLAYRSKVDKGSAEEEKIDALLSSSQIRWKN
# notes: VIPAR (VIPAS39), human, UniProt Q9H9C1; construct pUPE.02.09-VIPAR; also called pUPE.02.09-VIPAR; recombinant tagged VIPAR; source: HEK293 cells stably expressing Epstein-Barr virus Nuclear Antigen I, co-transfected with VPS33B; in lysate, then purified (Streptactin Sepharose, Superdex 200); not shown: His6-StrepII3, N-terminal, kept
# Target: T1, His6-cMyc4-tagged VPS33B
# Experiment: affinity purification with mass spectrometry; His6-StrepII3-VIPAR and His6-cMyc4-VPS33B coexpressed in HEK293 cells; soluble lysate (0.3% NP-40, NaCl to 300 mM) on Streptactin Sepharose, eluted with 2.5 mM desthiobiotin, Superdex 200; purified sample analysed by LC-MS/MS
# Conditions: partners not purified
binder,measurement,value
B1,binding result,binds
